Source: patent US11827911B2, “Chimeric bacteriophage lysin with activity against Staphylococci bacteria” (priority 2008, dated 2023)

Experiments:
staphylococcal strains = settings: by altering peptide cross-bridges; cited from earlier work
MRSA strain MW2 = assay: Systemic MRSA infection model, survival; format: in vivo, FVB/NJ mice; settings: 100 μg/mouse of oxacillin alone, 10 days
Protocol: In order to assess whether ClyS treatment could prevent death resulting from systemic MRSA infections, 4 week old FVB/NJ mice were intraperitoneally injected with ˜5×10^5 CFU of the community-acquired MRSA strain MW2 in 5% mucin. Preliminary experiments determined that 5×10^5 CFU was 10× the LD100 dose for a twenty-four hour period. Furthermore, within 3 hours of IP injection the MRSA infection was systemic. i.e., MRSA were recovered in high numbers from heart, liver, spleen, and kidney (data not shown). Treatment occurred three hours post-infection, with either 20 mM phosphate buffer or 1 mg of ClyS in 20 mM phosphate buffer injected IP (intraperitoneally). Mice were then monitored for survival over ten days. The results from three independent experiments were combined (ClyS treatment, n=16; buffer treatment, n=14) and the mice survival data plotted with a Kaplan Meier Survival curve (FIG. 12), Within twenty-four hours all of the control mice died of bacterial sepsis, while only 2/16 of ClyS treated mice died at forty-eight hours, and the remaining mice (14/16, 88%) survived over the course of the experiments (FIG. 12).
To determine if this effect could be seen in our systemic MRSA infection model, FVB/NJ mice were intraperitoneally injected with ˜5×10^5 CFUs of the MRSA strain MW2 as above. Three hours post infection mice were treated in parallel, with a lower IP dose of 130 μg/mouse of ClyS combined with different concentrations of oxacillin (10-100 μg/mouse) or buffer alone controls. Preliminary experiments determined that an ED30 dose of ClyS (130 μg/mouse) had minimal efficacy to evaluate the effect of combinatorial treatment with oxacillin (data not shown). Mice were monitored for survival for 10 days and the results of 5 independent experiments were combined and plotted in a Kaplan Meier Survival curve (FIG. 14).

MRSA strain COL = assay: Checkerboard broth-microdilution assay; format: cell-based, Staphylococcus aureus; settings: Staphylococcus aureus, read-out: MIC
Text: (§1) We used the checkerboard broth-microdilution assay to test the interaction of ClyS with vancomycin and with oxacillin. […] Isobolograms for ClyS with vancomycin and ClyS with oxacillin was plotted by transcribing the enzyme concentrations along the inhibitory line on the microtiter plate in an x/y plot.

VISA strain Mu50 = assay: Checkerboard broth-microdilution assay; format: cell-based, Staphylococcus aureus; settings: Staphylococcus aureus, VISA
Text: as §1

[1] = Solubility of expressed lysins and chimeras
Protocol: In another embodiment, the lysin is a chimeric protein that comprises an endopeptidase domain of the S. aureus Twort lysin upstream of the phiNM3 CWT domain (SEQ ID NO:1). The chimeric polypeptide is preferably sufficiently soluble in phosphate buffered saline (PBS). Preferred levels of solubility in PBS for the chimeric lysins is at least about 1 mg/ml and more preferably at least about 3 mg/mL. in PBS. […] One example of such a lysin is provided in SEQ ID NO:2 (AD127), shown in FIG. 5A and consisting of the Twort lysin endopeptidase domain attached to the phiNM3 CWT domain (SEQ ID NO:1). The isolated polypeptide of SEQ ID NO:2 (AD 127) was constructed by engineering S. epidermidis autolysin amidase and Twort lysin endopeptidase domains upstream of phiNM3 CWT domain, respectively.
Traditionally, Bacillus-specific lysins are expressed at high levels and are soluble in E. coli. Therefore, our first attempt was to engineer a 16-amino acid peptide (4) that is conserved in several S. aureus-specific lysins (Lu J Z, Fujiwara T, Komatsuzawa H, Sugai M, Sakon J. 2006. Cell wall-targeting domain of glycylglycine endopeptidase distinguishes among peptidoglycan cross-bridges. (Lue et al. (2006) J. Biol. Chem. 281(1):549-58) The catalytic domain of the Bacillus-specific lysin PlyB was used to generate chimera AD 103 (FIG. 4) (SEQ ID NO: 13). The chimeras were tested for expression, solubility and activity. Then the entire C-terminal CWT domain of PlyB (6) was replaced by the putative C-terminal domain of S. aureus phage Twort lysin (8) to obtain AD 105 (SEQ ID NO: 14). […] Since the lysostaphin catalytic domain […] (10) in AD 112 was of bacterial origin, we attempted to engineer a phage-derived catalytic domain upstream of the lysostaphin CWT. For this, the endopeptidase domain in Twort lysin (14) was used to construct chimera AD 119 (SEQ ID NO:3).

S. aureus = assay: Lytic assays of chimeric lysins against S. aureus; format: cell-based, Staphylococcus aureus; settings: for lytic/killing activity against S. aureus: qualitative
Text: For this, the endopeptidase domain in Twort lysin (14) was used to construct chimera AD 119 (SEQ ID NO:3). […] To overcome low expression of AD 127 construct, the entire chimera gene was cloned into expression vector pJML6 to generate pAD 138.

lysostaphin: staphylolytic enzyme produced by Staphylococcus simulans
frequency of developing resistance (staphylococcal strains): 10^−6

Cc1onc(-c2ccccc2)c1C(=O)N[C@@H]1C(=O)N2[C@@H]1SC(C)(C)[C@@H]2C(=O)O [oxacillin, reference compound]
survival (MRSA strain MW2): 35%
MIC (MRSA strain COL): 32 µg/mL

CN[C@H](CC(C)C)C(=O)N[C@H]1C(=O)N[C@@H](CC(N)=O)C(=O)N[C@H]2C(=O)N[C@H]3C(=O)N[C@H](C(=O)N[C@H](C(=O)O)c4cc(O)cc(O)c4-c4cc3ccc4O)[C@H](O)c3ccc(c(Cl)c3)Oc3cc2cc(c3O[C@@H]2O[C@H](CO)[C@@H](O)[C@H](O)[C@H]2O[C@H]2C[C@](C)(N)[C@H](O)[C@H](C)O2)Oc2ccc(cc2Cl)[C@H]1O [vancomycin, reference compound]
MIC (VISA strain Mu50): 8 µg/mL

B1: AD 107: lysostaphin CWT domain downstream of PlyB-catalytic domain (protein)
chain: MGYIVDMSKWNGSPDWDTAKGQLDLVIARVQDGSNYVDPVYKDYVAAMKARNIPFGSYAFCRFVSVEDAKVEARDFWNRGDKDSLFWVADVEVTTMSDMRAGTQAFIDELYRLGAKKVGLYVGHHKYEEFGAAQIKCDFTWIPRYGAKPAYPCDLWQYDEYGQVPGIGKCDLNRLNGDKSLDWFTGKGEEAVQLQTPNTGWKTNKYGTLYKSESASFTPNTDIITRTTGPFRSMPQSGVLKAGQTIHYDEVMKQDGHVWVGYTGNSGQRIYLPVRTWNKSTNTLGVLWGTIK
modifications: Chimeric of Bacillus-specific phage lysin PlyB catalytic domain and Staphylococcus simulans metalloendopeptidase Lysostaphin CWT domain
solubility of the expressed protein [1]: poor
lytic/killing activity against S. aureus (S. aureus): no activity

B2: AD 119: Twort lysin endopeptidase domain upstream of the lysostaphin CWT domain (protein)
chain: METLKQAESYIKSKVNTGTDFDGLYGYQCMDLAVDYIYHVTDGKIRMWGNAKDAINNSFGGTATVYKNYPAFRPKYGDVVVWTTGNFATYGHIAIVTNPDPYGDLQYVTVLEQNWNGNGIYKTELATIRTHDYTGITHFIRPNFATESSVKKKDTKKKPKPSNRDGLNKDKIVYDRTNINYNMVLQTPNTGWKTNKYGTLYKSESASFTPNTDIITRTTGPFRSMPQSGVLKAGQTIHYDEVMKQDGHVWVGYTGNSGQRIYLPVRTWNKSTNTLGVLWGTIK
modifications: Chimeric of Staphylococcus aureus bacteriophage Twort domain and Staphylococcus simulans metalloendopeptidase Lysostaphin CWT domain
solubility of the expressed protein [1]: soluble
lytic/killing activity against S. aureus (S. aureus): did not show significant activity

B3: AD 105: PlyB with its C-terminal CWT domain replaced by the putative C-terminal domain of S. aureus phage Twort lysin (protein)
chain: MGYIVDMSKWNGSPDWDTAKGQLDLVIARVQDGSNYVDPVYKDYVAAMKARNIPFGSYAFCRFVSVEDAKVEARDFWNRGDKDSLFWVADVEVTTMSDMRAGTQAFIDELYRLGAKKVGLYVGHHKYEEFGAAQIKCDFTWIPRYGAKPAYPCDLWQYDEYGQVPGIGKCDLNRLNGDKSLDWFTGKGEEAVQWNVNNYGTYYKSESATFKCTARQGIVTRYTGPFTTCPQAGVLYYGQSVTYDTVCKQDGYVWISWTTNGGQDVWMPVRTWDKNTDIMGQLWGDIY
modifications: Cimeric of Bacillus-specific phage lysin PlyB catalytic domain and Staphylococcus aureus bacteriophage Twort domain
lytic/killing activity against S. aureus (S. aureus): not active

B4: AD 112: S. epidermidis autolysin amidase domain upstream of the lysostaphin CWT domain (protein)
chain: MVSSQKTSSLPKYTPKVNSSINNYIRKKNMKAPRIEEDYTSYFPKYGYRNGVGRPEGIVVHDTANDNSTIDGEIAFMKRNYTNAFVHAFVDGNRIIETAPTDYLSWGAGPYGNQRFINVEIVHTHDYDSFARSMNNYADYAATQLQYYNLKPDSAENDGRGTVWTHAAISNFLGGTDHADPHQYLRSHNYSYAELYDLIYEKYLIKTKQVAPWGTTSTKPSQPSKPSGGTNNKLTVSANRGVAQIKPTNNGLYTTVYDSKGHKTDQVQKTLSVTKTATLGNNKFYLVEDYNSGKKYGWVKQGDVVYNTAKAPVKVNQTYNVKAGSTLYTVPWGTPKQVASKVSGTGNQTFKATKQQQIDKATYLYGTVNGKSGWISKYYLTTASKPSNPTKPSTNNQLTVAGQTIHYDEVMKQDGHTNNSGVAQINAKNSGLYTTVYDTKGKTTNQIQRTLSVTKAATLGDKKFYLVGDYNTGTNYGWVKQDEVIYNTAKSPVKINQTYNVKPGVKLHTVPWGTYNQVAGTVSGKGDQTFKATKQQQIDKATYLYGTVNGKSGWISKYYLLQTPNTGWKTNKYGTLYKSESASFTPNTDIITRTTGPFRSMPQSGVLKVWVGYTGNSGQRIYLPVRTWNKSTNTLGVLWGTIK
modifications: Chimeric of Staphylococcus epidermidis autolysin amidase domain and Staphylococcus simulans metalloendopeptidase Lysostaphin CWT domain
solubility of the expressed protein [1]: very soluble
effect on S. aureus cells when exposed (S. aureus): clumped
lytic/killing activity against S. aureus (S. aureus): no lytic activity

B5: AD 126: S. epidermidis autolysin amidase domain upstream of phiNM3 CWT domain (protein)
chain: MVSSQKTSSLPKYTPKVNSSINNYIRKKNMKAPRIEEDYTSYFPKYGYRNGVGRPEGIVVHDTANDNSTIDGEIAFMKRNYTNAFVHAFVDGNRIIETAPTDYLSWGAGPYGNQRFINVEIVHTHDYDSFARSMNNYADYAATQLQYYNLKPDSAENDGRGTVWTHAAISNFLGGTDHADPHQYLRSHNYSYAELYDLIYEKYLIKTKQVAPWGTTSTKPSQPSKPSGGTNNKLTVSANRGVAQIKPTNNGLYTTVYDSKGHKTDQVQKTLSVTKTATLGNNKFYLVEDYNSGKKYGWVKQGDVVYNTAKAPVKVNQTYNVKAGSTLYTVPWGTPKQVASKVSGTGNQTFKATKQQQIDKATYLYGTVNGKSGWISKYYLTTASKPSNPTKPSTNNQLTVTNNSGVAQINAKNSGLYTTVYDTKGKTTNQIQRTLSVTKAATLGDKKFYLVGDYNTGTNYGWVKQDEVIYNTAKSPVKINQTYNVKPGVKLHTVPWGTYNQVAGTVSGKGDQTFKATKQQQIDKATYLYGTVNGKSGWISKYYLLQGLMNKITNKVKPPAQKAVGKSASKITVGSKAPYNLKWSKGAYFNAKIDGLGATSATRYGDNRTNYRFDVGQAVYAPGTLIYVFEIIDGWCRIYWNNHNEWIWHERLIVKEVF
modifications: Chimeric of Staphylococcus epidermidis autolysin amidase domain and Staphylococcus aureus phage pniNM3 CWT domain
lytic/killing activity against S. aureus (S. aureus): no expression or activity
